In the experiment the target is T1, PD1 antigen obtained by cleaving PD1-mFc with TEV protease, labeled with biotin (UniProt Q15116 25-170, limits assumed, labeled with biotin (site not stated)).
T1 construct: also called antigen PD1
The experiment can be described thus: Fortebio Octet, biotin-PD1 on SA sensor, antibody in solution. From the text:
2. […] The dissociation of antigen and antibody were also in PBST.
For orientation: In BLI a coated tip is dipped into the sample, and binding shifts an interference pattern.

Broadly, the Kd is the concentration at which binding is half-saturated. The low end stands for higher affinity, the high end for lower affinity. For orientation: koff means a measure of how fast the partners let go of each other. High values mean fast dissociation, low ones slow dissociation. For orientation: kon means the rate constant with which the complex forms. A high value points to faster complex formation.

T1 sequence (Q15116 25-170 limits assumed): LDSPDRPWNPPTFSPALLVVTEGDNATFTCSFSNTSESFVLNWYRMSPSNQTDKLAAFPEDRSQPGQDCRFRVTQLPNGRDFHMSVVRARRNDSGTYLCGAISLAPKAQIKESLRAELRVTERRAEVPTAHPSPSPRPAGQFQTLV

B1: monoclonal antibody 14C12 (secreted by hybridoma cell line LT003) (antibody, V domains shown)
VH: EVKLVESGGGLVKPGGSLKLSCAASGFAFSSYDMSWVRQTPEKRLEWVATISGGGRYTYYPDSVKGRFTISRDNARNTLYLQMSSLRSEDTALYYCANRYGEAWFAYWGQGTLVTVSA
VL: DIKMTQSPSSMYASLGERVTFTCKASQDINTYLSWFQQKPGKSPKTLIYRANRLVDGVPSRFSGSGSGQDYSLTISSLEYEDMGIYYCLQYDEFPLTFGAGTKLEL
notes: Mouse antibody purified from hybridoma supernatant; also called PD1-14C12
In turn, B1 gave a Kd of 18.1 pM, a koff of 6.12e-06 s⁻¹ and a kon of 338000 M⁻¹ s⁻¹.
